These results are taken from patent US20020127229A1, “Tumour therapy” (priority 1996, published 2002).

Data set [1] relates to target cells in vitro. Conditions: cited from earlier work.
Data set [2] deals with human colon carcinoma LS174T. Further details: species or system nude mice. The note with it: mouse, in vivo. On the procedure: The following figures (FIGS. 2 to 6) illustrate the biodistribution of carboxypeptidase G2 conjugated to PEG in nude mice bearing the human colon carcinoma LS174T. The mice were injected intravenously with the specified amount of enzyme (measured as enzyme units) using 4 mice per time point. Mice were killed at 24 h, 48 h, and 72 h after injection, in some cases at 96 h and 120 h. CPG2 activity in plasma was measured by spectrophotometric assay using methotrexate as the substrate. CPG2 activity in tumour and other tissues was measured by HPLC using methotrexate as the substrate.
The biodistribution of native CPG2 and PEG-CPG2 at 72 hours is illustrated in FIGS. 7 and 8.
FIG. 4(a). Biodistribution of CPG2 activity following use of galactosylated SB43 (clearing antibody). Mice were given CPG2 conjugated to PEG 2000 mwt, average 22 mols PEG per molecule of CPG2, at time 0. Galactosylated monoclonal antibody SB43 was given 19, 20 and 21 hrs later by IP route. The mice were killed at 24 h post CPG2.
In relation to FIG. 4(a) and 4(b) these show good tumour to normal tissue concentration and ratios following use of the clearing antibody. However, it is not possible to administer the clearing antibody as efficiently in the mouse as in the human patient.
I have investigated PEG (mol wt 5000) in the range of 13-32 PEG molecules per enzyme molecule (CPG2, mol wt 83,000); the higher the molecular weight the higher and more prolonged is the plasma concentration of enzyme achieved. The higher the plasma concentration the higher tumour concentration in the tumour model LS174T. Since one objective is to get as much enzyme into the tumour as possible and prolong the period for which an effective concentration of enzyme is sustained in the tumour the conjugate giving the highest concentration of enzyme in blood is preferred. However, the choice of conjugate also has to take account of the need to clear enzyme from blood after the desired concentration of enzyme has been achieved in the tumour(s) and before prodrug is given. A conjugate which is difficult to clear from blood would be disadvantageous so that compromise between these two requirements may be necessary.
Thus, PEG with a molecular weight of 2000 in the range 20 to 40 PEG molecules per molecule of enzyme is preferred, giving a total molecular weight in the range of around 130-160 kDal, but associated water of hydration gives a molecular size equivalent to molecules of much greater weight.

The subject of data set [3] is LS174T tumours. The data set is described as follows: Tumour growth delay in the LS174T tumour model (MDEPT therapy). The note with it: with CPG2 clearance antibody SB43 and the phenol prodrug (25 mg/kg i.p., 3 doses). In kind it is in vivo, nude mice. The procedure: FIG. 6. Nude mice bearing LS174T tumours were given 25 enzyme units of CPG2-PEG (22 PEG molecules, PEG 5000) followed at 20 hr, 23 h, 26 h by galactosylated SB43. At 48 h post CPG2-PEG they received 25 mg/kg of a phenol prodrug (4-[N,N-bis(2-chloroethyl)amino]-phenoxycarbonyl-L-glutamic acid) intraperiotoneally, repeated to a total of 3 doses at 1 hr intervals.
FIG. 6. Nude mice bearing LS174T tumours were given 25 enzyme units of CPG2-PEG (22 PEG molecules, PEG 5000) followed at 20 hr, 23 h, 26 h by galactosylated SB43. At 48 h post CPG2-PEG they received 25 mg/kg of a phenol prodrug intraperiotoneally, repeated to a total of 3 doses at 1 hr intervals.

On to `CC(NC(=O)C(CCC(=O)O)NC(=O)c1ccc(N(C)Cc2cnc3nc(N)nc(N)c3n2)cc1)C(=O)O` (stereo not drawn) [Alanine methotrexate], for which, in data set [1], the “toxicity relative to native methotrexate (fold less)” value is recorded as 50-100 fold.

B1: Native ^125I-CPG2: bacterial enzyme carboxypeptidase G2, not conjugated to PEG (protein, UniProt P06621 23-415, looked up)
Carboxypeptidase G2: ALAQKRDNVLFQAATDEQPAVIKTLEKLVNIETGTGDAEGIAAAGNFLEAELKNLGFTVTRSKSAGLVVGDNIVGKIKGRGGKNLLLMSHMDTVYLKGILAKAPFRVEGDKAYGPGIADDKGGNAVILHTLKLLKEYGVRDYGTITVLFNTDEEKGSFGSRDLIQEEAKLADYVLSFEPTSAGDEKLSLGTSGIAYVQVNITGKASHAGAAPELGVNALVEASDLVLRTMNIDDKAKNLRFNWTIAKAGNVSNIIPASATLNADVRYARNEDFDAAMKTLEERAQQKKLPEADVKVIVTRGRPAFNAGEGGKKLVDKAVAYYKEAGGTLGVEERTGGGTDAAYAALSGKPVIESLGLPGFGYHSDKAEYVDISAIPRRLYMAARLIMDLGAGK
modifications: 125I label
notes: bacterial enzyme carboxypeptidase G2, not conjugated to PEG
Turning to B1, the “clearance from blood, tumour and normal tissues” value in data set [2] is reported as “clears rapidly”.

B2: PEG 2000: CPG2 conjugated to PEG 2000 mwt (average 22-27 PEG molecules per CPG2) (conjugate, UniProt P06621 23-415, looked up)
Carboxypeptidase G2: B1 Carboxypeptidase G2
modifications: PEG 2000, 22-27 per molecule
As to B2, in data set [2], the “plasma levels compared with PEG 5000” value is reported as “lower” and the “tumour concentrations of enzyme compared with PEG 5000” value is “similar”.

B3: PEG 5000 at 22 PEGs per CPG2: CPG2 conjugated to PEG 5000, 22 PEG molecules per CPG2 (conjugate, UniProt P06621 23-415, looked up)
Carboxypeptidase G2: B1 Carboxypeptidase G2
modifications: PEG 5000, 22 per molecule
notes: CPG2 conjugated to PEG 5000, 22 PEG molecules per CPG2
As to B3, in data set [3], the “tumour growth delay compared to untreated controls” value is recorded as “significant growth delay”.

B4: PEG (5000) 32-CPG2: CPG2 conjugated to PEG 5000 mwt, average 32 PEG molecules per molecule of CPG2 (conjugate, UniProt P06621 23-415, looked up)
Carboxypeptidase G2: B1 Carboxypeptidase G2
modifications: PEG 5000, 32 per molecule
notes: CPG2 conjugated to PEG 5000 mwt, average 32 PEG molecules per molecule of CPG2
B4: in data set [2], the “plasma concentration of enzyme” value was “high and persistent”.
